Measurements published in PMC10527347 (Journal of molecular biology, 2023).
Values belong to the binder of their own block, whether it stands above or below them.

What was measured:
[1] = molecular target: Hsp90Ec wild-type (E. coli, UniProt P0A6Z3 1-624); assay: BLI
[2] = molecular target: Hsp90Ec K560C (E. coli, UniProt P0A6Z3 1-624, K560C); assay: pull-down
[3] = molecular target: Hsp90Ec K354C (E. coli, UniProt P0A6Z3 1-624, K354C); assay: pull-down
[4] = molecular target: T1, Hsp90Ec N347C (E. coli, UniProt P0A6Z3 1-624, N347C); assay: pull-down
[5] = molecular target: Hsp90Ec K502C (E. coli, UniProt P0A6Z3 1-624, K502C); assay: pull-down
[6] = molecular target: Hsp90Ec K492C (E. coli, UniProt P0A6Z3 1-624, K492C); assay: pull-down
[7] = molecular target: T2, Hsp90Ec K199C (E. coli, UniProt P0A6Z3 1-624, K199C); assay: pull-down
[8] = molecular target: Hsp90Ec Q358C (E. coli, UniProt P0A6Z3 1-624, Q358C); assay: pull-down
[9] = molecular target: Hsp90Ec L493C (E. coli, UniProt P0A6Z3 1-624, L493C); assay: pull-down
[10] = molecular target: T3, Hsp90Ec N350C (E. coli, UniProt P0A6Z3 1-624, N350C); assay: pull-down
[11] = molecular target: Hsp90Ec K99C (E. coli, UniProt P0A6Z3 1-624, K99C); assay: pull-down
[12] = molecular target: Hsp90Ec K103C (E. coli, UniProt P0A6Z3 1-624, K103C); assay: pull-down
[13] = molecular target: Hsp90Ec K71C (E. coli, UniProt P0A6Z3 1-624, K71C); assay: pull-down
[14] = molecular target: Hsp90Ec K45C (E. coli, UniProt P0A6Z3 1-624, K45C); assay: pull-down
[15] = molecular target: T3, Hsp90Ec N350C; assay: cross-linking
[16] = molecular target: T1, Hsp90Ec N347C; assay: cross-linking
[17] = molecular target: T1, Hsp90Ec N347C; assay: cross-linking; remark: listed apart in the source
[18] = molecular target: T2, Hsp90Ec K199C; assay: cross-linking

Kd [1]: 11 ± 0.9 µM
binding result [2]: binds
binding result [3]: binds
binding result [4]: binds
binding result [5]: binds
binding result [6]: binds
binding result [7]: binds
binding result [8]: binds
binding result [9]: binds
binding result [10]: binds
binding result [11]: binds
binding result [12]: binds
binding result [13]: binds
binding result [14]: binds
B1: biotin-labeled CbpA (natural protein, E. coli, UniProt P36659 1-306, looked up)
chain: MELKDYYAIMGVKPTDDLKTIKTAYRRLARKYHPDVSKEPDAEARFKEVAEAWEVLSDEQRRAEYDQMWQHRNDPQFNRQFHHGDGQSFNAEDFDDIFSSIFGQHARQSRQRPATRGHDIEIEVAVFLEETLTEHKRTISYNLPVYNAFGMIEQEIPKTLNVKIPAGVGNGQRIRLKGQGTPGENGGPNGDLWLVIHIAPHPLFDIVGQDLEIVVPVSPWEAALGAKVTVPTLKESILLTIPPGSQAGQRLRVKGKGLVSKKQTGDLYAVLKIVMPPKPDENTAALWQQLADAQSSFDPRKDWGKA
modifications: biotin label (site not stated)

binding result [15]: binds
binding result [16]: binds
B2: CbpA J-domain A44C (domain or fragment, E. coli, UniProt P36659 1-78, looked up)
chain: MELKDYYAIMGVKPTDDLKTIKTAYRRLARKYHPDVSKEPDAECRFKEVAEAWEVLSDEQRRAEYDQMWQHRNDPQFN

binding result [17]: binds
binding result [18]: binds
B3: wild type CbpA J-domain fragment (residues 1-78) (domain or fragment, E. coli, UniProt P36659 1-78, looked up)
chain: MELKDYYAIMGVKPTDDLKTIKTAYRRLARKYHPDVSKEPDAEARFKEVAEAWEVLSDEQRRAEYDQMWQHRNDPQFN
